Biological target: HA-TRIP12
Assay: co-IP (IP-GFP, immunoblot for TRIP12; band intensity printed above lanes)
Settings: HEK293T cells, harvested for lysis 48 h after transfection; HA-TRIP12 co-transfected

- ratio to parent: 0.16
Substance: GFP-EZH2 wildtype (from UniProt Q15910) K634R
